Measurements from article PMC2756588.

T1: Fus1, P11710
T1 sequence (P11710 432-512, looked up): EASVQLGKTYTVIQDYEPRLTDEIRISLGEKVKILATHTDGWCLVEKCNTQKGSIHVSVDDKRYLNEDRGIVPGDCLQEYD

T2: Boi1, P38041
T2 sequence (P38041 1-86, looked up): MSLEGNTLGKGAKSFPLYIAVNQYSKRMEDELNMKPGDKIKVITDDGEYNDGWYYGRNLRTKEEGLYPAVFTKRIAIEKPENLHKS

T3: Cdc25, P04821
T3 sequence (P04821 50-136, looked up): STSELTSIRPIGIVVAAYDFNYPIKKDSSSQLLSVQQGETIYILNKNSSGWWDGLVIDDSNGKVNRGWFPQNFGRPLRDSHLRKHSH

T4: Cyk3, Q07533
T4 sequence (Q07533 1-83, looked up): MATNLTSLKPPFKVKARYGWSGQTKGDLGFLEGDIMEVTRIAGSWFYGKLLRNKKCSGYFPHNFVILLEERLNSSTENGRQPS

T5: Bzz1-2, P38822
T5 sequence (P38822 568-633, looked up): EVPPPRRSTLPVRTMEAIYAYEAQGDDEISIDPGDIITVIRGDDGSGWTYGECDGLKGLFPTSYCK

T6: Lsb1, P53281
T6 sequence (P53281 45-122, looked up): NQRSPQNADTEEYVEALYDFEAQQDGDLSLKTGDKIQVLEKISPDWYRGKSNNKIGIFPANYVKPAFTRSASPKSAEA

T7: Abp1, P15891
T7 sequence (P15891 535-592, looked up): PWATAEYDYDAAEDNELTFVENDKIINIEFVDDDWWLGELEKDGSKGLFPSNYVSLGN

T8: Bud14, P27637
T8 sequence (P27637 247-328, looked up): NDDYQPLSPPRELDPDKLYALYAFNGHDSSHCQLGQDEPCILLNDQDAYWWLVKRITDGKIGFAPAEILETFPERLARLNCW

T9: Lsb4, P32793
T9 sequence (P32793 402-468, looked up): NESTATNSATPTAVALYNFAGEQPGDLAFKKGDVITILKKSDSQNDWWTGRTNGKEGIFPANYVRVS

T10: Pin3, Q06449
T10 sequence (Q06449 53-122, looked up): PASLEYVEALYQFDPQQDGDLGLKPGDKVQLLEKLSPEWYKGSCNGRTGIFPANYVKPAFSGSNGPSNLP

T11: Lsb3, P43603
T11 sequence (P43603 385-451, looked up): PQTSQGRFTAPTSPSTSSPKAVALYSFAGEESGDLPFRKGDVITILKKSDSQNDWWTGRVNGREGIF

T12: Bzz1-1, P38822
T12 sequence (P38822 478-572, looked up): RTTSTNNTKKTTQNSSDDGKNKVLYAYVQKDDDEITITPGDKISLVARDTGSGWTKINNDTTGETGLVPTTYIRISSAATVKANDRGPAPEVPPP

T13: Nbp2, Q12163
T13 sequence (Q12163 103-180, looked up): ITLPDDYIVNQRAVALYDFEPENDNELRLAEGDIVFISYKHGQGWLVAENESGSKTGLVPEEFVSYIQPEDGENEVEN

T14: Pex13, P80667
T14 sequence (P80667 295-386, looked up): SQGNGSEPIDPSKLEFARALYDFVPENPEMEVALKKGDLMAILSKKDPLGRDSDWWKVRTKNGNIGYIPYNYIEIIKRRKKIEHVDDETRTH

T15: Boi2, P39969
T15 sequence (P39969 32-116, looked up): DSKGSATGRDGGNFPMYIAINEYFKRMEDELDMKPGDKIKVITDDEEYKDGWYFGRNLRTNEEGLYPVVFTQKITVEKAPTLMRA

T16: Hse1, P38753
T16 sequence (P38753 208-285, looked up): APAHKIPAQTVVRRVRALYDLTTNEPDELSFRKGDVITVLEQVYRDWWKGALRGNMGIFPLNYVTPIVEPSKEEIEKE

T17: Sla1-2, P32790
T17 sequence (P32790 60-140, looked up): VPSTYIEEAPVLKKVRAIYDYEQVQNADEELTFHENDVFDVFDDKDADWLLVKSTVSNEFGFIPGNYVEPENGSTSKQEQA

T18: Hof1, Q05080
T18 sequence (Q05080 590-669, looked up): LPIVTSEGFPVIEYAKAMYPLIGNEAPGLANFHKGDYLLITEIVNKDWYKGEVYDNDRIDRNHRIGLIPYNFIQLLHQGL

T19: Myo5, Q04439
T19 sequence (Q04439 1072-1160, looked up): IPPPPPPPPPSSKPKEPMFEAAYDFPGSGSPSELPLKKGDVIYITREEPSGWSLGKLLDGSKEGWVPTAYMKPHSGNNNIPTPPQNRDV

T20: Bbc1, P47068
T20 sequence (P47068 1-78, looked up): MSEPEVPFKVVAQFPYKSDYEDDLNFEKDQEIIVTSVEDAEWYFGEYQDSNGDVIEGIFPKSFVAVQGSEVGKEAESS

T21: Sla1-3, P32790
T21 sequence (P32790 344-424, looked up): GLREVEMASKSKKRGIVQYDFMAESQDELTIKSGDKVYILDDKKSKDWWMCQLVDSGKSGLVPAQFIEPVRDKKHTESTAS

B1: unnamed (peptide)
chain: QLLNPNRRAPRRPLS
B2: unnamed (peptide)
chain: PELAPKREAPKPPAN
B3: unnamed (peptide)
chain: VRTRRRPPPPPIPST

The binders below were run against T1, Fus1, P11710 (assay: SPOT array). Conditions: median of control spots 1200.

| Binder | SPOT intensity |
| --- | --- |
| B1 | 1 |
| B2 | 0 |
| B3 | 0 |

Each binder was assayed against T2, Boi1, P38041 (assay: SPOT array). Conditions: median of control spots 1162.

| Binder | SPOT intensity |
| --- | --- |
| B1 | 5 |
| B2 | 1 |
| B3 | 1 |

The binders below were run against GST (assay: SPOT array). Conditions: median of control spots 978.

| Binder | SPOT intensity |
| --- | --- |
| B1 | 2 |
| B2 | 0 |
| B3 | 2 |

These binders were tested against T3, Cdc25, P04821 (assay: SPOT array). Conditions: median of control spots 969.

| Binder | SPOT intensity |
| --- | --- |
| B1 | 16 |
| B2 | 0 |
| B3 | 0 |

The binders below were run against T4, Cyk3, Q07533 (assay: SPOT array). Conditions: median of control spots 1451.

| Binder | SPOT intensity |
| --- | --- |
| B1 | 1 |
| B2 | 1 |
| B3 | 1 |

These binders were tested against Rvs167, P39743 (assay: SPOT array). Conditions: median of control spots 2707.
Rvs167, P39743, sequence (P39743 419-482): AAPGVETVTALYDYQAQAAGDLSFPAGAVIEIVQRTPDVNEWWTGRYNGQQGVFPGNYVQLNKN

| Binder | SPOT intensity |
| --- | --- |
| B1 | 0 |
| B2 | 0 |
| B3 | 45 |

Each binder was assayed against T5, Bzz1-2, P38822 (assay: SPOT array). Conditions: median of control spots 4538.

| Binder | SPOT intensity |
| --- | --- |
| B1 | 9 |
| B2 | 4 |
| B3 | 4030 |

Each binder was assayed against T6, Lsb1, P53281 (assay: SPOT array). Conditions: median of control spots 388.

| Binder | SPOT intensity |
| --- | --- |
| B1 | 56 |
| B2 | 0 |
| B3 | 171 |

What follows are binders tested against Bem1-2, P29366 (assay: SPOT array). Conditions: median of control spots 4347.
Bem1-2, P29366, sequence (P29366 139-227): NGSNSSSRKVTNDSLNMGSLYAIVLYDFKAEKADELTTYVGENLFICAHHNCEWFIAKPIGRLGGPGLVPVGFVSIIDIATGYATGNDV

| Binder | SPOT intensity |
| --- | --- |
| B1 | 169 |
| B2 | 1 |
| B3 | 109 |

What follows are binders tested against T7, Abp1, P15891 (assay: SPOT array). Conditions: median of control spots 935.

| Binder | SPOT intensity |
| --- | --- |
| B1 | 125 |
| B2 | 0 |
| B3 | 107 |

Each binder was assayed against Bem1-1, P29366 (assay: SPOT array). Conditions: median of control spots 4282.
Bem1-1, P29366, sequence (P29366 55-141): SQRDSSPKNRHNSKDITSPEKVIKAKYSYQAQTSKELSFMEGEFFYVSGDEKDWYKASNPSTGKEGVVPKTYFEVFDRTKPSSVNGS

| Binder | SPOT intensity |
| --- | --- |
| B1 | 0 |
| B2 | 0 |
| B3 | 0 |

Each binder was assayed against T8, Bud14, P27637 (assay: SPOT array). Conditions: median of control spots 956.

| Binder | SPOT intensity |
| --- | --- |
| B1 | 11 |
| B2 | 0 |
| B3 | 8 |

What follows are binders tested against T9, Lsb4, P32793 (assay: SPOT array). Conditions: median of control spots 397.

| Binder | SPOT intensity |
| --- | --- |
| B1 | 35 |
| B2 | 2 |
| B3 | 39 |

These binders were tested against T10, Pin3, Q06449 (assay: SPOT array). Conditions: median of control spots 2171.

| Binder | SPOT intensity |
| --- | --- |
| B1 | 30 |
| B2 | 0 |
| B3 | 11 |

What follows are binders tested against T11, Lsb3, P43603 (assay: SPOT array). Conditions: median of control spots 406.

| Binder | SPOT intensity |
| --- | --- |
| B1 | 43 |
| B2 | 0 |
| B3 | 38 |

Each binder was assayed against T12, Bzz1-1, P38822 (assay: SPOT array). Conditions: median of control spots 4446.

| Binder | SPOT intensity |
| --- | --- |
| B1 | 0 |
| B2 | 4 |
| B3 | 1720 |

Each binder was assayed against Myo3, P36006 (assay: SPOT array). Conditions: median of control spots 468.

| Binder | SPOT intensity |
| --- | --- |
| B1 | 168 |
| B2 | 497 |
| B3 | 296 |

What follows are binders tested against Sho1, P40073 (assay: SPOT array). Conditions: median of control spots 1148.
Sho1, P40073, sequence (P40073 287-367): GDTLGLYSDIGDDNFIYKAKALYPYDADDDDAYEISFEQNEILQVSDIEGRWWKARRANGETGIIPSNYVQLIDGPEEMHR

| Binder | SPOT intensity |
| --- | --- |
| B1 | 50 |
| B2 | 0 |
| B3 | 46 |

What follows are binders tested against T13, Nbp2, Q12163 (assay: SPOT array). Conditions: median of control spots 357.

| Binder | SPOT intensity |
| --- | --- |
| B1 | 1130 |
| B2 | 281 |
| B3 | 35 |

What follows are binders tested against T14, Pex13, P80667 (assay: SPOT array). Conditions: median of control spots 1341.

| Binder | SPOT intensity |
| --- | --- |
| B1 | 21 |
| B2 | 0 |
| B3 | 8 |

What follows are binders tested against T15, Boi2, P39969 (assay: SPOT array). Conditions: median of control spots 1161.

| Binder | SPOT intensity |
| --- | --- |
| B1 | 2 |
| B2 | 1 |
| B3 | 1 |

What follows are binders tested against T16, Hse1, P38753 (assay: SPOT array). Conditions: median of control spots 1727.

| Binder | SPOT intensity |
| --- | --- |
| B1 | 20 |
| B2 | 0 |
| B3 | 29 |

These binders were tested against T17, Sla1-2, P32790 (assay: SPOT array). Conditions: median of control spots 712.

| Binder | SPOT intensity |
| --- | --- |
| B1 | 3 |
| B2 | 0 |
| B3 | 4 |

What follows are binders tested against T18, Hof1, Q05080 (assay: SPOT array). Conditions: median of control spots 4086.

| Binder | SPOT intensity |
| --- | --- |
| B1 | 3 |
| B2 | 0 |
| B3 | 6 |

Each binder was assayed against T19, Myo5, Q04439 (assay: SPOT array). Conditions: median of control spots 471.

| Binder | SPOT intensity |
| --- | --- |
| B1 | 13 |
| B2 | 262 |
| B3 | 188 |

What follows are binders tested against T20, Bbc1, P47068 (assay: SPOT array). Conditions: median of control spots 796.

| Binder | SPOT intensity |
| --- | --- |
| B1 | 158 |
| B2 | 7 |
| B3 | 115 |

Each binder was assayed against T21, Sla1-3, P32790 (assay: SPOT array). Conditions: median of control spots 5475.

| Binder | SPOT intensity |
| --- | --- |
| B1 | 9 |
| B2 | 0 |
| B3 | 1790 |
